Substrate in series [1]: C[C@H](O)[C@H](O)[C@H]1CNc2nc(N)[nH]c(=O)c2N1
The series is described as follows: cells, lysate or membranes named.

Substrate in series [2]: COCC1CNc2nc(N)[nH]c(=O)c2N1
The series is described as follows: Tryptophan hydroxylase cofactor assay. The series is classed as biochemical.

Substrate in series [3]: C[C@H](O)[C@H](O)[C@H]1CNc2nc(N)[nH]c(=O)c2N1
The series is described as follows: purified protein, by the assay type.

Substrate in series [4]: COCC1CNc2nc(N)[nH]c(=O)c2N1
The series is described as follows: Phenylalanine hydroxylase cofactor assay. The series is classed as biochemical. Conditions: other: rat liver enzyme.

Substrate in series [5]: COCC1CNc2nc(N)[nH]c(=O)c2N1
The series is described as follows: Dihydropteridine reductase assay. The series is classed as biochemical. As to conditions: other: quinonoid dihydro form of the pterin. As to the method:
Dihydropteridine reductase was assayed by the method of Craine, et al., (J. Biol. Chem., 247, 6082 (1972)).

B1: Tryptophan hydroxylase (Rattus norvegicus) (protein)
chain: MQPAMMMFSSKYWARRGLSLDSAVPEEHQILGGLTQNKATASKSEDKRSGKDTSESSKTAVVFSLKNEVGGLVRALRLFQEKHVNMLHIESRRSRRRSSEVEIFVDCECGKTEFNELIQLLKFQTTIVTLNPPDNIWTEEEELEDVPWFPRKISELDRCSHRVLMYGTELDADHPGFKDNVYRQRRKYFVDVAMGYKYGQPIPRVEYTEEETKTWGVVFRELSKLYPTHACREYLKNFPLLTKYCGYREDNVPQLEDVSMFLKERSGFTVRPVAGYLSPRDFLAGLAYRVFHCTQYVRHGSDPLYTPEPDTCHELLGHVPLLADPKFAQFSQEIGLASLGASDEDVQKLATCYFFTIEFGLCKQEGQLRAYGAGLLSSIGELKHALSDKACVKAFDPKTTCLQECLITTFQDAYFVSESFEEAKEKMRDFAKSITRPFSVYFNPYTQSIEILKDTRSIENVVQDLRSDLNTVCDALNKMNQYLGI
notes: The preparation of tryptophan hydroxylase was a crude 30,000xg supernatant; from tissue
Turning to B1, the Michaelis-Menten constant (Km) in series [1] turned out to be 82 µM; in series [2], 103 µM.

B2: Phenylalanine hydroxylase (Rattus norvegicus) (protein)
chain: MAAVVLENGVLSRKLSDFGQETSYIEDNSNQNGAISLIFSLKEEVGALAKVLRLFEENDINLTHIESRPSRLNKDEYEFFTYLDKRTKPVLGSIIKSLRNDIGATVHELSRDKEKNTVPWFPRTIQELDRFANQILSYGAELDADHPGFKDPVYRARRKQFADIAYNYRHGQPIPRVEYTEEEKQTWGTVFRTLKALYKTHACYEHNHIFPLLEKYCGFREDNIPQLEDVSQFLQTCTGFRLRPVAGLLSSRDFLGGLAFRVFHCTQYIRHGSKPMYTPEPDICHELLGHVPLFSDRSFAQFSQEIGLASLGAPDEYIEKLATIYWFTVEFGLCKEGDSIKAYGAGLLSSFGELQYCLSDKPKLLPLELEKTACQEYSVTEFQPLYYVAESFSDAKEKVRTFAATIPRPFSVRYDPYTQRVEVLDNTQQLKILADSINSEVGILCNALQKIKS
notes: Phenylalanine hydroxylase was prepared from rat liver using hydrophobic chromatography; from tissue; host or cells: rat liver
As to B2, the values for the Km in series [3] (other: rat liver enzyme) and in series [4] were 7.9 µM and 12.9 µM, respectively.

B3: Dihydropteridine reductase (Homo sapiens) (protein)
chain: MAAAAAAGEARRVLVYGGRGALGSRCVQAFRARNWWVASVDVVENEEASASIIVKMTDSFTEQADQVTAEVGKLLGEEKVDAILCVAGGWAGGNAKSKSLFKNCDLMWKQSIWTSTISSHLATKHLKEGGLLTLAGAKAALDGTPGMIGYGMAKGAVHQLCQSLAGKNSGMPPGAAAIAVLPVTLDTPMNRKSMPEADFSSWTPLEFLVETFHDWITGKNRPSSGSLIQVVTTEGRTELTPAYF
Regarding B3, the results for the Michaelis constant (Km) in series [3] (other: quinonoid dihydro form of the pterin) and in series [5] were 1.8 µM and 7 µM, respectively.

A word on the Km: it is the substrate concentration at which the rate is half of its maximum.

Source of the values: patent US4587340A, “Biopterin analogs” (Burroughs Wellcome Co., priority 1984, dated 1986).
